Measured values published in the Human Domainome abundance scans (Beltran et al. 2025).
± gives the uncertainty stated by the source.

B1: Tudor domain-containing protein 3, residues 554 to 611; numbered along this chain, Q9H7E2 (parent)
chain: KMWKPGDECFALYWEDNKFYRAEVEALHSSGMTAVVKFIDYGNYEEVLLSNIKPIQTE

Variants of: B1
Test: abundance fitness (aPCA) (normalised: wild type 0, dead -1); higher = more abundant; growth selection in yeast, the domain comes from the species named
Conditions: Homo sapiens
K37N showed an abundance fitness of -0.567 ± 0.17.
For K37P, the abundance fitness was -0.948 ± 0.14.
K37Q gave an abundance fitness of -0.359 ± 0.093.
K37R gave an abundance fitness of -0.064 ± 0.058.
Work on K37S yielded an abundance fitness of -0.616 ± 0.088.
In the case of K37T, the abundance fitness is reported as -0.923 ± 0.14.
K37W showed an abundance fitness of -0.635 ± 0.085.
K37Y gave an abundance fitness of -0.098 ± 0.14.
Variant F38A has an abundance fitness of -0.878 ± 0.091.
Work on F38C yielded an abundance fitness of -0.935 ± 0.13.
For F38D, the abundance fitness was -0.764 ± 0.17.
For F38E, the abundance fitness was -0.997 ± 0.13.
F38G showed an abundance fitness of -0.845 ± 0.065.
In the case of F38H, the abundance fitness is reported as -0.94 ± 0.23.
In the case of F38I, the abundance fitness is reported as -0.852 ± 0.26.
F38K gave an abundance fitness of -1.13 ± 0.22.
F38M gave an abundance fitness of -0.722 ± 0.15.
For F38N, the abundance fitness was -0.802 ± 0.2.
F38P showed an abundance fitness of -0.941 ± 0.21.
Variant F38Q has an abundance fitness of -0.946 ± 0.13.
For F38R, the abundance fitness was -0.894 ± 0.081.
For F38T, the abundance fitness was -0.987 ± 0.16.
In the case of F38V, the abundance fitness is reported as -0.787 ± 0.077.
Variant F38W has an abundance fitness of -0.416 ± 0.074.
F38Y gave an abundance fitness of -0.479 ± 0.13.
In the case of I39A, the abundance fitness is reported as -0.036 ± 0.063.
Variant I39C has an abundance fitness of -0.081 ± 0.082.
I39D showed an abundance fitness of -0.469 ± 0.11.
In the case of I39F, the abundance fitness is reported as -0.083 ± 0.1.
For I39G, the abundance fitness was -0.361 ± 0.058.
In the case of I39K, the abundance fitness is reported as 0.044 ± 0.097.
I39L showed an abundance fitness of -0.05 ± 0.066.
Work on I39M yielded an abundance fitness of -0.093 ± 0.078.
Work on I39N yielded an abundance fitness of -0.255 ± 0.12.
Variant I39P has an abundance fitness of -0.278 ± 0.11.
For I39Q, the abundance fitness was -0.082 ± 0.093.
In the case of I39R, the abundance fitness is reported as -0.097 ± 0.056.
Work on I39S yielded an abundance fitness of -0.111 ± 0.069.
For I39T, the abundance fitness was -0.034 ± 0.083.
With I39W the abundance fitness was -0.361 ± 0.082.
Variant I39Y has an abundance fitness of -0.006 ± 0.15.
D40N gave an abundance fitness of -0.187 ± 0.12.
For Y41A, the abundance fitness was 0.134 ± 0.062.
Work on Y41C yielded an abundance fitness of -0.019 ± 0.075.
In the case of Y41D, the abundance fitness is reported as 0.055 ± 0.083.
In the case of Y41E, the abundance fitness is reported as 0.042 ± 0.087.
Y41F showed an abundance fitness of 0.162 ± 0.1.
Variant Y41G has an abundance fitness of 0.07 ± 0.064.
Work on Y41H yielded an abundance fitness of 0.028 ± 0.099.
With Y41I the abundance fitness was 0.076 ± 0.11.
Y41K showed an abundance fitness of 0.103 ± 0.088.
With Y41L the abundance fitness was -0.045 ± 0.064.
For Y41M, the abundance fitness was -0.086 ± 0.11.
For Y41N, the abundance fitness was 0.035 ± 0.1.
Y41P gave an abundance fitness of -0.446 ± 0.091.
Y41Q gave an abundance fitness of 0.105 ± 0.086.
In the case of Y41R, the abundance fitness is reported as 0.108 ± 0.059.
In the case of Y41S, the abundance fitness is reported as 0.118 ± 0.061.
In the case of Y41T, the abundance fitness is reported as 0.132 ± 0.085.
Work on Y41V yielded an abundance fitness of -0.025 ± 0.062.
For Y41W, the abundance fitness was -0.029 ± 0.08.
Variant G42A has an abundance fitness of -0.305 ± 0.077.
For G42C, the abundance fitness was -0.315 ± 0.14.
G42D gave an abundance fitness of 0.059 ± 0.1.
For G42E, the abundance fitness was 0.005 ± 0.097.
In the case of G42H, the abundance fitness is reported as -0.395 ± 0.18.
In the case of G42K, the abundance fitness is reported as -0.407 ± 0.14.
G42L gave an abundance fitness of -0.492 ± 0.13.
With G42M the abundance fitness was -0.319 ± 0.18.
With G42P the abundance fitness was -0.11 ± 0.14.
G42Q gave an abundance fitness of -0.345 ± 0.15.
Variant G42R has an abundance fitness of -0.607 ± 0.069.
With G42S the abundance fitness was -0.378 ± 0.13.
G42T showed an abundance fitness of -0.736 ± 0.27.
G42V showed an abundance fitness of -0.926 ± 0.11.
G42W gave an abundance fitness of -0.695 ± 0.089.
N43C showed an abundance fitness of -0.059 ± 0.085.
With N43D the abundance fitness was -0.259 ± 0.14.
N43E gave an abundance fitness of -0.079 ± 0.061.
N43F gave an abundance fitness of -0.052 ± 0.19.
With N43G the abundance fitness was -0.162 ± 0.045.
With N43H the abundance fitness was -0.073 ± 0.17.
Variant N43K has an abundance fitness of 0.093 ± 0.094.
Variant N43L has an abundance fitness of 0.01 ± 0.064.
Variant N43M has an abundance fitness of -0.108 ± 0.071.
In the case of N43P, the abundance fitness is reported as -0.563 ± 0.11.
Work on N43R yielded an abundance fitness of 0.091 ± 0.048.
For N43S, the abundance fitness was -0.045 ± 0.069.
Variant N43T has an abundance fitness of 0.073 ± 0.078.
For N43V, the abundance fitness was 0.035 ± 0.057.
With N43W the abundance fitness was -0.059 ± 0.058.
For N43Y, the abundance fitness was 0.003 ± 0.15.
Work on Y44A yielded an abundance fitness of -0.065 ± 0.068.
For Y44C, the abundance fitness was 0.097 ± 0.079.
With Y44D the abundance fitness was -0.468 ± 0.089.
Y44E showed an abundance fitness of 0.012 ± 0.092.
With Y44F the abundance fitness was 0.006 ± 0.13.
With Y44G the abundance fitness was -0.767 ± 0.062.
Variant Y44H has an abundance fitness of -0.13 ± 0.1.
With Y44I the abundance fitness was -0.015 ± 0.13.
With Y44K the abundance fitness was 0.157 ± 0.088.
Y44L gave an abundance fitness of -0.05 ± 0.077.
In the case of Y44M, the abundance fitness is reported as 0.09 ± 0.12.
Work on Y44N yielded an abundance fitness of -0.111 ± 0.11.
Y44P gave an abundance fitness of -0.473 ± 0.096.
Y44Q gave an abundance fitness of -0.206 ± 0.12.
Y44R showed an abundance fitness of 0.171 ± 0.056.
For Y44S, the abundance fitness was 0.135 ± 0.062.
With Y44T the abundance fitness was 0.039 ± 0.081.
In the case of Y44V, the abundance fitness is reported as 0.103 ± 0.07.
E45A gave an abundance fitness of -0.041 ± 0.066.
With E45C the abundance fitness was -0.262 ± 0.079.
Work on E45F yielded an abundance fitness of -0.768 ± 0.17.
E45G showed an abundance fitness of -0.101 ± 0.054.
With E45H the abundance fitness was -0.333 ± 0.13.
In the case of E45I, the abundance fitness is reported as -0.975 ± 0.21.
With E45K the abundance fitness was -0.43 ± 0.1.
Variant E45L has an abundance fitness of -0.53 ± 0.08.
For E45M, the abundance fitness was -0.586 ± 0.15.
E45N showed an abundance fitness of -0.368 ± 0.17.
For E45P, the abundance fitness was -1.02 ± 0.19.
Variant E45Q has an abundance fitness of -0.13 ± 0.096.
E45R showed an abundance fitness of -0.107 ± 0.053.
E45T showed an abundance fitness of -0.398 ± 0.098.
E45V showed an abundance fitness of -0.392 ± 0.072.
With E45W the abundance fitness was -0.788 ± 0.089.
E45Y showed an abundance fitness of -0.38 ± 0.15.
Variant E46C has an abundance fitness of -0.279 ± 0.099.
Work on E46D yielded an abundance fitness of -0.149 ± 0.087.
For E46F, the abundance fitness was -0.697 ± 0.19.
E46G gave an abundance fitness of -0.88 ± 0.095.
For E46H, the abundance fitness was -0.308 ± 0.12.
In the case of E46I, the abundance fitness is reported as -0.488 ± 0.12.
Work on E46K yielded an abundance fitness of -0.205 ± 0.15.
For E46L, the abundance fitness was -0.327 ± 0.076.
E46M gave an abundance fitness of -0.342 ± 0.12.
E46P gave an abundance fitness of -0.465 ± 0.11.
Variant E46Q has an abundance fitness of -0.055 ± 0.11.
In the case of E46R, the abundance fitness is reported as -0.138 ± 0.075.
With E46S the abundance fitness was -0.029 ± 0.076.
Work on E46W yielded an abundance fitness of -0.259 ± 0.095.
E46Y gave an abundance fitness of -0.324 ± 0.11.
Variant V47A has an abundance fitness of -0.815 ± 0.097.
For V47C, the abundance fitness was -0.296 ± 0.11.
In the case of V47D, the abundance fitness is reported as -0.729 ± 0.36.
In the case of V47E, the abundance fitness is reported as -0.925 ± 0.11.
Variant V47F has an abundance fitness of -0.636 ± 0.17.
In the case of V47G, the abundance fitness is reported as -0.873 ± 0.068.
In the case of V47H, the abundance fitness is reported as -0.733 ± 0.17.
Variant V47I has an abundance fitness of -0.134 ± 0.12.
For V47L, the abundance fitness was -0.433 ± 0.063.
Work on V47M yielded an abundance fitness of -0.821 ± 0.093.
V47P showed an abundance fitness of -0.893 ± 0.11.
Work on V47Q yielded an abundance fitness of -0.714 ± 0.1.
V47R gave an abundance fitness of -0.937 ± 0.073.
Variant V47S has an abundance fitness of -0.926 ± 0.1.
V47T gave an abundance fitness of -0.966 ± 0.17.
For V47W, the abundance fitness was -0.846 ± 0.071.
In the case of V47Y, the abundance fitness is reported as -0.886 ± 0.23.
For L48A, the abundance fitness was -0.049 ± 0.07.
Variant L48D has an abundance fitness of -0.177 ± 0.098.
With L48E the abundance fitness was -0.136 ± 0.089.
For L48F, the abundance fitness was -0.224 ± 0.11.
Variant L48G has an abundance fitness of -0.479 ± 0.069.
With L48H the abundance fitness was -0.152 ± 0.1.
In the case of L48I, the abundance fitness is reported as -0.408 ± 0.13.
L48K gave an abundance fitness of -0.1 ± 0.081.
